{"source": "patent US6410226", "proteins": {"B1": {"name": "hsREC2 (human REC2, ATP-dependent homologous pairing protein) (protein)", "chain": "MGSKKLKRVGLSQELCDRLSRHQILTCQDFLCLSPLELMKVTGLSYRGVHELLCMVSRACAPKMQTAYGIKAQRSADFSPAFLSTTLSALDEALHGGVACGSLTEITGPPGCGKTQFCIMMSILATLPTNMGGLEGAVVYIDTESAFSAERLVEIAESRFPRYFNTEEKLLLTSSKVHLYRELTCDEVLQRIESLEEEIISKGIKLVILDSVASVVRKEFDAQLQGNLKERNKFLAREASSLKYLAEEFSIPVILTNQITTHLSGALASQADLVSPADDLSLSEGTSGSSCVIAALGNTWSHSVNTRLILQYLDSERRQILIAKSPLAPFTSFVYTIKEEGLVLQAYGNS"}}}
{"protein": "B1", "values": [{"measurement": "Hill coefficient of ATP hydrolysis (ATPase activity) at ATP concentrations of <100 µM", "result": "the Hill coefficient (1.8)"}]}
